The target in assay [1] is T1, Human CD123-His (human, UniProt P26951 19-305).
T1 construct: also called interleukin 3 receptor alpha; IL-3Rα; not shown: His tag
T1 sequence (looked up): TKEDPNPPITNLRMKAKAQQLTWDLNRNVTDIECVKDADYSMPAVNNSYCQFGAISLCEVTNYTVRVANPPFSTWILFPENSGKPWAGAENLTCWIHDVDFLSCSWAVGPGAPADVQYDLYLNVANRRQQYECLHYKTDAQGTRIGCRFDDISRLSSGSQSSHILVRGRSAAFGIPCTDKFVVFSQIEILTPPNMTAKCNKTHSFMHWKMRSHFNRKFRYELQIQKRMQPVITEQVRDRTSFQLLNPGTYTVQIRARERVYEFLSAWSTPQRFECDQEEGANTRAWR
In words: kinetic binding analysis, method not given.

Assay [2] deals with T2, Cynomolgus CD123-His (cynomolgus monkey).
T2 construct: also called cynomolgus monkey CD123
The experiment in a line: kinetic binding analysis, method not given.

B1: DART-A, sequence-optimized CD123×CD3 bi-specific monovalent diabody (bispecific antibody)
chain 1: QAVVTQEPSLTVSPGGTVTLTCRSSTGAVTTSNYANWVQQKPGQAPRGLIGGTNKRAPWTPARFSGSLLGGKAALTITGAQAEDEADYYCALWYSNLWVFGGGTKLTVLGGGGSGGGGEVQLVQSGAELKKPGASVKVSCKASGYTFTDYYMKWVRQAPGQGLEWIGDIIPSNGATFYNQKFKGRVTITVDKSTSTAYMELSSLRSEDTAVYYCARSHLLRASWFAYWGQGTLVTVSSGGCGGGEVAALEKEVAALEKEVAALEKEVAALEK
chain 2: DFVMTQSPDSLAVSLGERVTMSCKSSQSLLNSGNQKNYLTWYQQKPGQPPKLLIYWASTRESGVPDRFSGSGSGTDFTLTISSLQAEDVAVYYCQNDYSYPYTFGQGTKLEIKGGGSGGGGEVQLVESGGGLVQPGGSLRLSCAASGFTFSTYAMNWVRQAPGKGLEWVGRIRSKYNNYATYYADSVKDRFTISRDDSKNSLYLQMNSLKTEDTAVYYCVRHGNFGNSYVSWFAYWGQGTLVTVSSGGCGGGKVAALKEKVAALKEKVAALKEKVAALKE
notes: no Fc; also called CD123×CD3 DART molecule
A word on the kon: it is the second-order rate constant of association. Read a high kon as faster complex formation. Take B1: the on-rate constant (kon) in assay [1] is 160000 M⁻¹ s⁻¹; in assay [2], 150000 M⁻¹ s⁻¹.

The record behind these values is patent publication US20210061911A1 (MacroGenics, published 2021).
